Test results as given in the supplement of paper PMC7877785.
± gives the uncertainty stated by the source.

Assay: self-splicing fitness, log relative to wild type (ln ratio); higher = more splicing; Tetrahymena group I intron in knt gene, E. coli kanamycin selection, DiMSum; sequences stand for … in CUCUCU…GGAGGGAAAAGUUAUCAGGCAUGCACCUGGUAGCUAGUCUUUAAACCAAUAGAUUGCAUCGGUUUAAAAGGCAAGACCGUCAAAUUGCGGGAAAGGGGUCAACAGCCGUUCAGUACCAAGUCUCAGGGGAAACUUUGAGAUGGCCUUGCAAAGGGUAUGGUAAUAAGCUGACGGACAUGGUCCUAACCACGCAGCCAAGUCCUAAGUCAACAGAUCUUCUGUUGAUAUGGAUGCAGUUCACAGACUAAAUGUCGGUCGGGGAAGAUGUAUUCUUCUCAUAAGAUAUAGUCGGACCUCUCCUUAAUGGGAGCUAGCGGAUGAAGUGAUGCAACACUGGAGCCGCUGGGAACUAAUUUGUAUGCGAAAGUAUAUUGAUUAGUUUUGGAGUACUCGUGGUCG
How it was run: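 Fitness was computed with DiMSum as the error-weighted combination of replicate fold changes, kanamycin versus none, each normalised to wild type. The library randomised all eight intron nucleotides of the P1ex region, with the intron placed in the knt kanamycin-resistance gene on pET-22b(+) in E. coli BL21(DE3). Six replicate transformations were grown overnight at 37°C or 30°C on LB agar with or without 25 μg/mL kanamycin, plus 100 μg/mL carbenicillin, 50 μM IPTG and 0.2% rhamnose. Pooled colonies were amplicon-sequenced on an Illumina HiSeq 2500.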

Sequence	self-splicing fitness (ln) (30 °C)	self-splicing fitness (ln) (37 °C)
GCUUAGCAAUAUUACGUAGC	-3.12 ± 0.26	-1.75 ± 0.26
AGUUAGCAAUAUUACGAUAC	-2.6 ± 0.25	-1.51 ± 0.24
UCAAAGCAAUAUUACGGGUC	-3.59 ± 0.23	-3.14 ± 0.25
UUUGAGCAAUAUUACGGCAU	-1.56 ± 0.33	-1.62 ± 0.3
UCGUAGCAAUAUUACGAAAG	-3.1 ± 0.17	-2.16 ± 0.23
CCUAAGCAAUAUUACGGGUC	-4.66 ± 0.36	-3.25 ± 0.22
UAUUAGCAAUAUUACGUCAG	-1.84 ± 0.1	-0.992 ± 0.12
GAAAAGCAAUAUUACGCUUU	-3.39 ± 0.22	-2.39 ± 0.26
CCCGAGCAAUAUUACGCACG		-3.26 ± 0.47
GUCUAGCAAUAUUACGAAGG	-2.34 ± 0.18	-1.43 ± 0.16
UCUCAGCAAUAUUACGCCUC	-3.12 ± 0.27	-2.27 ± 0.29
CUGCAGCAAUAUUACGAACA	-3.3 ± 0.24	-1.49 ± 0.14
GACGAGCAAUAUUACGUGAA		-2.29 ± 0.32
GCGAAGCAAUAUUACGCCAU		-2.48 ± 0.36
AUUAAGCAAUAUUACGUUUC	-3.77 ± 0.35	-1.65 ± 0.26
GUCUAGCAAUAUUACGACUU	-1.32 ± 0.12	-0.56 ± 0.11
CCCAAGCAAUAUUACGAAAC	-2.72 ± 0.22	-2.04 ± 0.27
GGGGAGCAAUAUUACGGGUU	-2.84 ± 0.22	-2.2 ± 0.39
CAGCAGCAAUAUUACGCCAC	-4.15 ± 0.26	-3.31 ± 0.29
GAAAAGCAAUAUUACGUUGA	-2.87 ± 0.15	-1.24 ± 0.1
GGAAAGCAAUAUUACGAGAA		-1.29 ± 0.27
UAGUAGCAAUAUUACGUUCA	-0.66 ± 0.15	0.327 ± 0.15
CUUUAGCAAUAUUACGCGGG	-3.35 ± 0.3	-2.31 ± 0.32
GUGAAGCAAUAUUACGGGAU	-1.1 ± 0.07	-0.971 ± 0.093
AGAUAGCAAUAUUACGAAUU	-2.43 ± 0.15	-1.25 ± 0.16
UUUAAGCAAUAUUACGAUCA	-0.491 ± 0.1	0.00531 ± 0.11

Sequence	self-splicing fitness (ln) (30 °C)	self-splicing fitness (ln) (37 °C)
GAGUAGCAAUAUUACGGUUU	-0.669 ± 0.092	-0.275 ± 0.091
GACGAGCAAUAUUACGGCUC	-2.6 ± 0.12	-1.41 ± 0.15
UACAAGCAAUAUUACGUUGG	-3.19 ± 0.12	-1.41 ± 0.1
GGAGAGCAAUAUUACGUCUG	-1.13 ± 0.2	-0.491 ± 0.25
AUGCAGCAAUAUUACGCGGG	-2.94 ± 0.17	-2.49 ± 0.17
CCUUAGCAAUAUUACGGUAC	-4.06 ± 0.21	-2.44 ± 0.19
CGCCAGCAAUAUUACGGACU	-0.845 ± 0.066	0.157 ± 0.091
CAAGAGCAAUAUUACGAAAC	-2.91 ± 0.36	
CAAAAGCAAUAUUACGGUGC	-3.76 ± 0.24	-2.8 ± 0.24
UGGCAGCAAUAUUACGCUGA	-2.79 ± 0.21	-1.17 ± 0.12
CUUGAGCAAUAUUACGGUUG	-2.28 ± 0.097	-1.95 ± 0.14
GCUUAGCAAUAUUACGUUUC	-1.2 ± 0.099	-0.547 ± 0.11
UGACAGCAAUAUUACGGCAG	-0.0451 ± 0.065	0.0375 ± 0.079
CUUAAGCAAUAUUACGACUA	-1.35 ± 0.35	
GGAAAGCAAUAUUACGGUUC	-3.33 ± 0.43	-2.23 ± 0.49
GAGCAGCAAUAUUACGUUUC	-3.37 ± 0.14	-2.2 ± 0.22
AGUAAGCAAUAUUACGUCAU	-2.97 ± 0.23	-2.12 ± 0.19
UUCCAGCAAUAUUACGGGCC	-3.91 ± 0.3	-2.34 ± 0.33
AGGGAGCAAUAUUACGGACC	-2.79 ± 0.36	-1.37 ± 0.36
CGGAAGCAAUAUUACGGACG	-3 ± 0.27	-2.12 ± 0.44
GGCAAGCAAUAUUACGAGCC	-2.21 ± 0.43	-1.52 ± 0.44
CGCGAGCAAUAUUACGAUGA	-3.39 ± 0.32	-1.7 ± 0.18
CCGCAGCAAUAUUACGGGUC	-3.86 ± 0.18	-2.69 ± 0.19
UGCCAGCAAUAUUACGCCCU	-1.49 ± 0.11	-0.167 ± 0.13
UACCAGCAAUAUUACGACCA	-0.314 ± 0.081	0.106 ± 0.1
ACCGAGCAAUAUUACGUUGU	-3.67 ± 0.17	-1.5 ± 0.12

Sequence	self-splicing fitness (ln) (30 °C)	self-splicing fitness (ln) (37 °C)
CGCAAGCAAUAUUACGCCGC		-1.24 ± 0.49
GACCAGCAAUAUUACGGGCU	-2.93 ± 0.14	-1.96 ± 0.14
UGACAGCAAUAUUACGGGUA	-1.07 ± 0.055	-0.216 ± 0.062
AACCAGCAAUAUUACGGUCC	-0.721 ± 0.089	-0.491 ± 0.12
CAUCAGCAAUAUUACGUGCU	-3.71 ± 0.28	-2.46 ± 0.21
GGGUAGCAAUAUUACGAACU	-0.832 ± 0.27	-0.534 ± 0.19
AGACAGCAAUAUUACGCUCC	-3.32 ± 0.48	-1.64 ± 0.19
CAACAGCAAUAUUACGCGUG	-4.02 ± 0.22	-3.31 ± 0.16
GGUCAGCAAUAUUACGGAUC	-2.95 ± 0.22	-0.0513 ± 0.21
CCGAAGCAAUAUUACGCCUU	-3.35 ± 0.36	-1.21 ± 0.3
AAACAGCAAUAUUACGAUGU	-1.36 ± 0.088	-0.715 ± 0.091
UACGAGCAAUAUUACGGGUG	-1.88 ± 0.074	-0.725 ± 0.087
UAGCAGCAAUAUUACGACGA	-0.341 ± 0.07	0.256 ± 0.079
CCCUAGCAAUAUUACGCGAC	-4.32 ± 0.36	-2.67 ± 0.33
ACUGAGCAAUAUUACGUUAC	-3.95 ± 0.3	-2.9 ± 0.38
GGUAAGCAAUAUUACGCUUC	-4.14 ± 0.42	-1.58 ± 0.35
AAACAGCAAUAUUACGGGUC	-3.47 ± 0.16	-3.08 ± 0.22
GUACAGCAAUAUUACGUCGU	-1.34 ± 0.11	0.338 ± 0.11
UCUGAGCAAUAUUACGGUAA	-2.84 ± 0.33	-2.24 ± 0.3
GCCUAGCAAUAUUACGUUAA	-1.86 ± 0.13	-1.28 ± 0.13
CUGUAGCAAUAUUACGGUGU	-3.41 ± 0.12	-2.88 ± 0.14
CGUGAGCAAUAUUACGCCUG	-1.76 ± 0.26	-0.852 ± 0.36
UGACAGCAAUAUUACGUAAC	-4.4 ± 0.46	-2.38 ± 0.19
UAAGAGCAAUAUUACGUGCA	-2.09 ± 0.2	-0.84 ± 0.2
UGCUAGCAAUAUUACGCUAA	-1.85 ± 0.13	-1.55 ± 0.16
